Assays:
[1] = molecular target: T1, FLAG-MCM5 (K583R), expressed in HeLa cells (human, UniProt P33992 1-734, K583R); assay: proximity ligation; HeLa cells transfected with FLAG-VEC, FLAG-MCM5 (WT) or FLAG-MCM5 (K583R), 1 h after release from double-thymidine block; PLA with CDC45; settings: partners not purified
T1 construct: human MCM5, full-length cDNA in a pcDNA3.0 3XFLAG vector, point mutation K583R (UFMylation-resistant); also called KR; Lys583Arg; source: HeLa, transfected; in fixed cells (PLA) and in the chromatin fraction (IP)
T1 sequence (looked up): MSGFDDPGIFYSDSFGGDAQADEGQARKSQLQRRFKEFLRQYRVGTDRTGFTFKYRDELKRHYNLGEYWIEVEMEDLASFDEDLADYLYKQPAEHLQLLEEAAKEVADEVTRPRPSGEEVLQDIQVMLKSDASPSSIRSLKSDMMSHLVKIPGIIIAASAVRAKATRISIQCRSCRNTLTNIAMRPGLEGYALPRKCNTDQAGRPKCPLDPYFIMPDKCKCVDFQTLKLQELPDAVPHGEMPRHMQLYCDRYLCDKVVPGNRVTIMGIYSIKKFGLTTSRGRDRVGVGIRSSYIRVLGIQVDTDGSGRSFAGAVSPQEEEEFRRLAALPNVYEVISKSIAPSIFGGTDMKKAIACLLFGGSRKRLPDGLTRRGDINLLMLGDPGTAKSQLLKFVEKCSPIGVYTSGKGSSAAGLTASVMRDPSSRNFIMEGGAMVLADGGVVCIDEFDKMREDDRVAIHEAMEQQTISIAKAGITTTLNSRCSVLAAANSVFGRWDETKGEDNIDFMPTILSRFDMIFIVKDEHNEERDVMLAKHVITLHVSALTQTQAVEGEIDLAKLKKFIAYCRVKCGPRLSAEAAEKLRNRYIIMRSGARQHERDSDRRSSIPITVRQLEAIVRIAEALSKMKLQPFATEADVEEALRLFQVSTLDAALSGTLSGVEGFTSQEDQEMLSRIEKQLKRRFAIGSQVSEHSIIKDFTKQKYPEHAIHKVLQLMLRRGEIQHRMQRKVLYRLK

[2] = molecular target: T2, His-UFL1 (UniProt O94874 1-794); assay: pull-down; GST pull-down in vitro with purified GST-MCM5 and His-UFL1; bead-associated proteins analysed by western blot; settings: both partners purified
T2 construct: UFL1; construct pet28a-UFL1; also called pet28a-UFL1; source: E. coli BL21, purified (Ni-NTA agarose)
T2 sequence (looked up): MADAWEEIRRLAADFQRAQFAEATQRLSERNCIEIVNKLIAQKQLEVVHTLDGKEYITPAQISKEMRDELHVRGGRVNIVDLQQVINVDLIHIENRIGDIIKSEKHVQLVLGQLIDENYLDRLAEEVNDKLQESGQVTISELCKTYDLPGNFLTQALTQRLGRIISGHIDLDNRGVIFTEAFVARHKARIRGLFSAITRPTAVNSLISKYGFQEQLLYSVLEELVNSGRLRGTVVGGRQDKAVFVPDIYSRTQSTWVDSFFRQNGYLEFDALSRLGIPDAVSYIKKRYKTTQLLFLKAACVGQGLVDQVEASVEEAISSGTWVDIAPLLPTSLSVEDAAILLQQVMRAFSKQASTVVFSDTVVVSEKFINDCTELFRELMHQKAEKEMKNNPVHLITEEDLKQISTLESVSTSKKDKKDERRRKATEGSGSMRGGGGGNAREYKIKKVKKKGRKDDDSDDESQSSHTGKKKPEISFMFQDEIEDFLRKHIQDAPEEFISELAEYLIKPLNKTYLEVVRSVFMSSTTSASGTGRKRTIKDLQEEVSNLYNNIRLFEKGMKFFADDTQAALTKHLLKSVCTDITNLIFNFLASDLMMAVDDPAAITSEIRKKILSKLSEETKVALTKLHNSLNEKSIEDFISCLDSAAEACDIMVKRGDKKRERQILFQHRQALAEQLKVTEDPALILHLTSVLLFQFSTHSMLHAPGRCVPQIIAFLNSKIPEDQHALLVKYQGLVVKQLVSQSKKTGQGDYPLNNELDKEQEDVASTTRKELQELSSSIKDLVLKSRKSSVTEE

| Binder | fold decrease in PLA foci per cell against WT MCM5 [1] [fold] | binding result [2] |
| --- | --- | --- |
| CDC45 (endogenous, HeLa) (natural protein, human (endogenous in HeLa), UniProt O75419 1-566, looked up, CDC45 (cell division cycle 45), endogenous in HeLa; also called cell division cycle 45; source: endogenous, HeLa (fixed cells for PLA; chromatin fraction)) MFVSDFRKEFYEVVQSQRVLLFVASDVDALCACKILQALFQCDHVQYTLVPVSGWQELETAFLEHKEQFHYFILINCGANVDLLDILQPDEDTIFFVCDTHRPVNVVNVYNDTQIKLLIKQDDDLEVPAYEDIFRDEEEDEEHSGNDSDGSEPSEKRTRLEEEIVEQTMRRRQRREWEARRRDILFDYEQYEYHGTSSAMVMFELAWMLSKDLNDMLWWAIVGLTDQWVQDKITQMKYVTDVGVLQRHVSRHNHRNEDEENTLSVDCTRISFEYDLRLVLYQHWSLHDSLCNTSYTAARFKLWSVHGQKRLQEFLADMGLPLKQVKQKFQAMDISLKENLREMIEESANKFGMKDMRVQTFSIHFGFKHKFLASDVVFATMSLMESPEKDGSGTDHFIQALDSLSRSNLDKLYHGLELAKKQLRATQQTIASCLCTNLVISQGPFLYCSLMEGTPDVMLFSRPASLSLLSKHLLKSFVCSTKNRRCKLLPLVMAAPLSMEHGTVTVVGIPPETDSSDRKNFFGRAFEKAAESTSSRMLHNHFDLSVIELKAEDRSKFLDALISLLS | 4 | – |
| GST-MCM5 (natural protein, human, UniProt P33992 1-734, looked up, human MCM5 in pGEX-4T-1; the GST construct is probably the same insert; also called pGEX-4T-1 MCM5; WT GST-MCM5; source: E. coli BL21, purified (Glutathione-Sepharose 4B)) MSGFDDPGIFYSDSFGGDAQADEGQARKSQLQRRFKEFLRQYRVGTDRTGFTFKYRDELKRHYNLGEYWIEVEMEDLASFDEDLADYLYKQPAEHLQLLEEAAKEVADEVTRPRPSGEEVLQDIQVMLKSDASPSSIRSLKSDMMSHLVKIPGIIIAASAVRAKATRISIQCRSCRNTLTNIAMRPGLEGYALPRKCNTDQAGRPKCPLDPYFIMPDKCKCVDFQTLKLQELPDAVPHGEMPRHMQLYCDRYLCDKVVPGNRVTIMGIYSIKKFGLTTSRGRDRVGVGIRSSYIRVLGIQVDTDGSGRSFAGAVSPQEEEEFRRLAALPNVYEVISKSIAPSIFGGTDMKKAIACLLFGGSRKRLPDGLTRRGDINLLMLGDPGTAKSQLLKFVEKCSPIGVYTSGKGSSAAGLTASVMRDPSSRNFIMEGGAMVLADGGVVCIDEFDKMREDDRVAIHEAMEQQTISIAKAGITTTLNSRCSVLAAANSVFGRWDETKGEDNIDFMPTILSRFDMIFIVKDEHNEERDVMLAKHVITLHVSALTQTQAVEGEIDLAKLKKFIAYCRVKCGPRLSAEAAEKLKNRYIIMRSGARQHERDSDRRSSIPITVRQLEAIVRIAEALSKMKLQPFATEADVEEALRLFQVSTLDAALSGTLSGVEGFTSQEDQEMLSRIEKQLKRRFAIGSQVSEHSIIKDFTKQKYPEHAIHKVLQLMLRRGEIQHRMQRKVLYRLK | – | binds |

From paper PMC12583452, “MCM5 UFMylation regulates replication origin firing and fork progression” (The EMBO Journal, 2025)
